The record followed here is patent US20210388081A1 (Memorial Sloan Kettering, published 2021).

Assay [1] concerns the target T1, FcRL3, overexpressed on 3T3 cells (UniProt Q96P31 18-734, limits assumed).
T1 construct: whole, on cells
T1 sequence (looked up): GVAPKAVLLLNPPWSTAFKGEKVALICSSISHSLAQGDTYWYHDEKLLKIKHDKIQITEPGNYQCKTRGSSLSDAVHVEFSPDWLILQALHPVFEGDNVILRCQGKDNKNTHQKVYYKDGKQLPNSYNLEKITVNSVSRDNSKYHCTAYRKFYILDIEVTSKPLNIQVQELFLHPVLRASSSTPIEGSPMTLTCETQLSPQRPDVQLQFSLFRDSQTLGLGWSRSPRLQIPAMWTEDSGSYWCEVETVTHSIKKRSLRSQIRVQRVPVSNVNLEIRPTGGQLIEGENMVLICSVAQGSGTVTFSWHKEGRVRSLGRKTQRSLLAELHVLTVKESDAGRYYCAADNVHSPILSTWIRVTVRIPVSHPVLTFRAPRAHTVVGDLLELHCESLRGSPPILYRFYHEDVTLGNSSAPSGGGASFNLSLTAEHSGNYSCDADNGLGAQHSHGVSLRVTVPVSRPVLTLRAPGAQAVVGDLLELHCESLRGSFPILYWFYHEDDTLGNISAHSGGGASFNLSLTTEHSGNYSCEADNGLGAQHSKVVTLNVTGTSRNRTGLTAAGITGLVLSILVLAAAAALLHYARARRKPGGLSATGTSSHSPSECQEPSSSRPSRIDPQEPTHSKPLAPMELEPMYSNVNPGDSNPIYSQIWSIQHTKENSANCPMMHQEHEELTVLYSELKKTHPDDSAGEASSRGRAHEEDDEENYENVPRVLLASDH
Briefly: phage clone on 3T3-FcRL3 cells.

The target in assay [2] is T2, FcRL2, overexpressed on 3T3 cells (UniProt Q96LA5 20-508, limits assumed).
T2 construct: whole, on cells
T2 sequence (looked up): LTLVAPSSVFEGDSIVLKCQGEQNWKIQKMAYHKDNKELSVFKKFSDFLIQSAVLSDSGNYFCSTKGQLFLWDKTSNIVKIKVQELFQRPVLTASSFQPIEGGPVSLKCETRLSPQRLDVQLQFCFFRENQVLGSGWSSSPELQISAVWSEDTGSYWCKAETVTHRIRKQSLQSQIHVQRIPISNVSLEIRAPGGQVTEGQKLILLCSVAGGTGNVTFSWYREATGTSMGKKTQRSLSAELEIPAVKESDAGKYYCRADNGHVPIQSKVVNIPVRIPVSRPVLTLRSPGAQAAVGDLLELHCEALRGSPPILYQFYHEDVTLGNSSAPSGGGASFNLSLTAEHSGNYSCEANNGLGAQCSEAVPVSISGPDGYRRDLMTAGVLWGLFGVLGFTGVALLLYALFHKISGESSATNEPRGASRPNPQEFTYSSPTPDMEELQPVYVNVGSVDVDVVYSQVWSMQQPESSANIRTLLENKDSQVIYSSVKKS
Briefly: phage clone on 3T3-FcRL2 cells.

A further assay has as its target SLAMF9 protein (UniProt Q96A28 19-236, limits assumed). Kind of assay: phage clone on SLAMF9 protein.
The target of assay [3] is T3, FcRL1, overexpressed on 3T3 cells (UniProt Q96LA6 17-429, limits assumed).
T3 construct: whole, on cells
T3 sequence (looked up): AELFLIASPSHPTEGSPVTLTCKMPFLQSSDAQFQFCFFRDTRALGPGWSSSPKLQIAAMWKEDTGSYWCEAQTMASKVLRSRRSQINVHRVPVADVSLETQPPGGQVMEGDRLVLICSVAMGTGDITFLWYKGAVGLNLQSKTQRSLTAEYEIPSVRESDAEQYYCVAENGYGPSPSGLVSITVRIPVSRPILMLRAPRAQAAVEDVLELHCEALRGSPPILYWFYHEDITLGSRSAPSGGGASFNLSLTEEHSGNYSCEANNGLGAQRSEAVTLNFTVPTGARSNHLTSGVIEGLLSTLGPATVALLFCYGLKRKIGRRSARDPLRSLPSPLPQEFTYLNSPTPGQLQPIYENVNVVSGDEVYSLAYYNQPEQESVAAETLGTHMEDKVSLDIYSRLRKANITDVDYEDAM
Kind of assay: phage clone on 3T3-FcRL1 cells.

Assay [4] has as its target T4, Fc Receptor-like 5 (FcRL5), full length, overexpressed on 3T3 or Raji cells (human, UniProt Q96RD9 16-977).
T4 construct: also called 3T3-FcRL5
T4 sequence: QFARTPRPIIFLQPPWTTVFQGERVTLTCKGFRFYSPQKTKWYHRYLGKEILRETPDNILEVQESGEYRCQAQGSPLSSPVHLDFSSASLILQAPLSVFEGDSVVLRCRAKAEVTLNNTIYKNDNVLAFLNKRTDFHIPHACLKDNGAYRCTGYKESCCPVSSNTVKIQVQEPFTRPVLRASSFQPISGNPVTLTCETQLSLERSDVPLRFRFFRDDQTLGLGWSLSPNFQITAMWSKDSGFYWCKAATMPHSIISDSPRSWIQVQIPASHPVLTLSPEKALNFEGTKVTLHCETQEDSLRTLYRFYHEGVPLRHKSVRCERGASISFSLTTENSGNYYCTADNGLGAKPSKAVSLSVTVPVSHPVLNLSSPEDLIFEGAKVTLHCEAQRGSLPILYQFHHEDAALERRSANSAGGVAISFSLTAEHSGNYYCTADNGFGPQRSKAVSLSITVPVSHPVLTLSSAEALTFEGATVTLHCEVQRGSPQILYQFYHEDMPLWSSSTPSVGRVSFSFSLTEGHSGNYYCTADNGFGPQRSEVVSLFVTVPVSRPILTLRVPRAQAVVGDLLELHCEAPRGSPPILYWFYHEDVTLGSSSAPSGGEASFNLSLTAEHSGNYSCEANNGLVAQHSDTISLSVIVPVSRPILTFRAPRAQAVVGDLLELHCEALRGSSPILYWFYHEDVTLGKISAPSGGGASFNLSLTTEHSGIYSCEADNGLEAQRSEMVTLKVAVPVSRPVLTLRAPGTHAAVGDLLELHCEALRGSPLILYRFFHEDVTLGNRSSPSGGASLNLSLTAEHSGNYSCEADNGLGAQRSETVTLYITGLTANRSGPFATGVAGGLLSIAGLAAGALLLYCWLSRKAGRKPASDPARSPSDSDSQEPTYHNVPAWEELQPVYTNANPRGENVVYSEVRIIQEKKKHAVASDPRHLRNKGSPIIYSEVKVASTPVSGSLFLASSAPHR
Kind of assay: phage clone screening on cells. How it is done: Once selected, positive scFv clones are further tested for their binding to FcRL5 (e.g., human FcRL5) on live 3T3 cell surfaces by flow cytometry. Briefly, phage clones are incubated with 3T3 cells over-expressing FcRL5. The cells are washed and then incubated with a mouse anti-M13 coat protein mAb. Cells are washed again and labeled with a PE-horse anti-mouse Ig prior to flow cytometry.
Phage′ display against FcRL5 was performed to enrich for scFv phage clones that bind to FcRL5 specifically. Screening was carried out on FcRL5 overexpressing 3T3 cells or 3T3 cells expressing FcRL1, 2, 3, 4 or 6 as a negative control (FIG. 2).

Chain of SLAMF9 protein (Q96A28 19-236 limits assumed): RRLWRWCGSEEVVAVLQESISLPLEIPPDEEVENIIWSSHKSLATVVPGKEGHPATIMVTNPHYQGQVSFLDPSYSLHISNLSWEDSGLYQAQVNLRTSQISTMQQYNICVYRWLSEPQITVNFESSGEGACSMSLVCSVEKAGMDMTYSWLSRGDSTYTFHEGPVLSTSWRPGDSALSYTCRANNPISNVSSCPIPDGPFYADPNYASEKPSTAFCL

B1: ET200-013 (scFv)
scFv: QSVVTQPPSVSGAPGQRVTISCTGSTSNIGAGYDVHWYQQLPGTAPKLLIYTNNFRPSGVPDRFSASKSGTSASLAITGLQAEDEADYYCGTWDSSLSAVVFGGGTKLTVLGSRGGGGSGGGGSGGGGSLEMAEVQLVESGTEVKKPGASVKVSCKASGYMFTSYGLNWVRQAPGQGLEWMGWISANNGKTNYAKKFQDRVTMTRDTSTSTGYMELRSLRSDDTAVYYCARHIGGSYFDRWGQGTLVTVSSTSGQAGQHHHHHHGAYPYDVPDYAS
notes: screened as phage clone; entry is VL-linker-VH-His tag-HA tag
For B1, the binding result in assay [1] was “no binding”; in assay [2] it was “no binding”; in the assay with SLAMF9 protein, “no binding”; in assay [3] it was “no binding”; in assay [4], “binds”.

B2: ET200-017 (scFv)
scFv: SYVLTQPPSVSVAPGKTARITCGGNNIGSKSVHWYQQKPGQAPVLVVYDDSDRPSGIPERFSGSNSGNTATLSISRVEAGDEADYYCQVWDSSSDHTVFGTGTKVTVLGSRGGGGSGGGGSGGGGSLEMAQVQLQQWGAGLLKPSETLSLTCAVYGGSFSGYYWSWIRQPPGKGLEWIGEINHSGSTNYNPSLKSRVTISVDTSKNQFSLKLSSVTAADTAVYYCARYYPGMDMWGQGTLVTVSSTSGQAGQHHHHHHGAYPYDVPDYAS
notes: as for B1
As for B2, the binding result in assay [1] is “no binding”; in assay [2], “no binding”; with SLAMF9 protein, “no binding”; in assay [3] it was “no binding”; in assay [4], “binds”.

B3: ET200-011 (scFv)
scFv: QSVVTQPPSVSAAPGQRVTISCSGSSSNISIYDVSWYQQLPGTAPKLLIYGNNKRPSGIADRFSGSTSGTSATLGITGLQTGDEADYYCGTWDDSLSGGVFGGGTKLTVLGSRGGGGSGGGGSGGGGSLEMAQMQLVQSGAEVKKPGSSVKVSCEASGGTLSSYAINWVRQAPGQGLEWMGGIIPMFGTAHYAQKFQGRVTITADESTKTAYMELSSLRSEDTAVYYCARGVHYASFDHWGQGTLVTVSSTSGQAGQHHHHHHGAYPYDVPDYAS
notes: as for B1
With B3, the binding result in assay [1] is reported as “no binding”; in assay [2], “no binding”; in the assay with SLAMF9 protein, “no binding”; in assay [3], “no binding”; in assay [4], “binds”.

B4: ET200-014 (scFv)
scFv: SYVLTQPPSVSVAPGKTARITCGGNNIGSKSVHWYQQKPGQAPVLVIYYDSDRPSGIPERFSGSNSGNTATLTISRVEAGDEADYYCQVWDSSSDHYVFGTGTKVTVLGSRGGGGSGGGGSGGGGSLEMAEVQLVETGGGLVQPGGSLRLSCAASGFTFSSYAMSWVRQAPGKGLEWVSAISGSDGSTYYADSVKGRFTISRDNSKNTLYLQMNSLRDEDTAVYYCARSHEANLVGDWWGQGTLVTVSSTSGQAGQHHHHHHGAYPYDVPDYAS
notes: as for B1
On to B4, for which the binding result is reported as “no binding” in assay [1]; “no binding” in assay [2]; “no binding” with SLAMF9 protein; “no binding” in assay [3]; “binds” in assay [4].

B5: ET200-012 (scFv)
scFv: QSVLTQPPSVSAAAGQKVTISCSGSDSNIGNNYVSWYQHLPGTAPKLLIYDVKNRPSGIPDRFSGSKSGSSATLGIAGLQPGDEADYYCGTWDSRLDAYVFGTGTKVTVLGSRGGGGSGGGGSGGGGSLEMAQMQLVQSGAEVKKPGASVKVSCKTSGFPFNIFGITWVRQAPGQGLEWMGWISGYNGNTDYPQKFQGRVTMSTDTSTSTAYMELRNLKSDDTAVYYCARGAYGGMDTWGQGTLVTVSSTSGQAGQHHHHHHGAYPYDVPDYAS
notes: as for B1
For B5, the binding result in assay [1] is on record as “no binding”; in assay [2] it was “no binding”; with SLAMF9 protein, “no binding”; in assay [3] it was “no binding”; in assay [4], “binds”.

B6: ET200-015 (scFv)
scFv: QSVVTQPPSVSVAPGKTARITCGGNNIGSKSVHWYQQKPGQAPVLVIYYDSDRPSGIPERFSGSNSGNTATLTISRVEAGDEADYYCQVWDSSSDVVFGGGTKLTVLGSRGGGGSGGGGSGGGGSLEMAEVQLVQSGAEVKKPGASVKVSCKASGYTFTSYGISWVRQAPGQGLEWMGWISAYNGNTNYAQKLQGRVTMTTDTSTSTAYMELRSLRSDDTAVYYCARWGGFGAVDHWGQGTLVTVSSTSGQAGQHHHHHHGAYPYDVPDYAS
notes: as for B1
As for B6, the binding result in assay [1] is “no binding”; in assay [2] it was “no binding”; with SLAMF9 protein it was “no binding”; in assay [3], “no binding”; in assay [4] it was “binds”.

B7: ET200-016 (scFv)
scFv: SSELTQDPAVSVALGQTVKITCQGDSLTDYHATWYQQKPGQAPVAVIYATNNRPTGIPDRFSGSSSGNTASLTITGAQAEDEADYYCNSRDSGTDEVLFGGGTKLTVLGSRGGGGSGGGGSGGGGSLEMAEVQLVETGGGLVKPGGSLRLSCAASGFTFSSYSMNWVRQAPGKGLEWVSSISSSSSYIYYADSVKGRFTISRDNAKNSLYLQMNSLRAEDTAVYYCARGQGYDYWGQGTLVTVSSTSGQAGQHHHHHHGAYPYDVPDYAS
notes: as for B1
In the case of B7, the binding result is reported as “no binding” in assay [1]; “no binding” in assay [2]; “no binding” with SLAMF9 protein; “no binding” in assay [3]; “binds” in assay [4].
